Assay results as given in doi:10.1101/2025.04.16.649181, “Design of peptide-based PAC1 antagonists combining molecular dynamics simulations and a biologically relevant cell-based assay” (bioRxiv, 2025).
No end group written: not given here.

What was measured:
[1] = biological target: PAC1 endogenously expressed in SH-SY5Y cells (human (endogenous in SH-SY5Y)) (UniProt P41586)
PAC1 [2] = settings: ref 15 (maxadilan); cited from earlier work
Source text: Similarities include initial binding events between the C-terminal domain of the peptide with the extracellular domain (ECD) followed by insertion of the N-terminus of the peptide into the core of the receptor to enable activation, but with differences in binding poses in the C-terminus explaining in part the ligand selectivity of each receptor [13]. Empirica ...

human PAC1hop (hPAC1) = assay: cAMP biosensor (CBS) assay, agonist responses in HEK293_CBS_hPAC1; format: cell-based; settings: HEK293_CBS_hPAC1, IBMX pretreated, luminescence
Source text: A single clone of the SH-SY5Y cell line stably expressing a cAMP biosensor (SY5Y_CBS) was generated as previously described for HEK293_CBS and NS-1_CBS cells, using the retroviral vector pLHCX containing the cAMP biosensor and a hygromycin resistance gene. A HEK293_CBS_hPAC1 cell clone was generated by transducing HEK293_CBS cells with the lentiviral vector pLX304 (GeneCopoeia, Rockville, MD) encoding the human PAC1hop (PAC1; GenBank accession no. BC143679) and a blasticidin resistance gene . Following transduction, cells were selected with the appropriate antibiotics (hygromycin or blasticidin) for 2 weeks. Single-cell clones were subsequently isolated by limiting dilution and assessed for PACAP-induced cAMP production using concentration-response assays.
The cyclic AMP biosensor (CBS) assay was performed using Gibco CO2-independent medium (ThermoFisher, catalog #18045-088). HEK293_CBS_hPAC1 or SY5Y_CBS cells were seeded in 96-well black/clear-bottom plates (MidSci, Fenton, MO) at a density of 6,000 cells per well and incubated overnight. The following day, the medium in each well was aspirated and replaced with fresh medium containing 1.5 mg/mL D-luciferin potassium salt substrate (Gold Biotechnology, St. Louis, MO) and 500 μM isobutyl-1-methylxanthine (IBMX), followed by incubation at 37 °C for 1 hour. Cells were then pre-treated with antagonists for 10 minutes before the addition of agonists (PACAP or forskolin). Plates were incubated at 37 °C for 1 hour, then brought to room temperature and equilibrated for 30 minutes. Luminescence was measured using a GloMax plate reader (Promega, Madison, WI).
GraphPad Prism ver. 9.0 or 10.0 (GraphPad Software Inc, Boston, MA) was used for data analysis. Concentration response curves were created using a four parameter logistic regression model. EC80 and IC50 parameters were obtained using non-linear regression curve fitting tools. EC80 was calculated as the effective concentration of the agonist required to produce 80% of the maximal response. […]

PAC1 [3] = assay: CBS assay in NS-1 cells, endogenous PAC1; format: cell-based, rat; settings: NS-1 cells expressing CBS, n = 3
Description: Cell culture reagents were purchased from ThermoFisher Scientific (Waltham, MA) unless otherwise noted. Neuroscreen-1 (NS-1) cells (Cellomics, Halethorpe, MD) were grown on flasks or plates coated with Collagen I (rat tail) as described previously. NS-1 cells were cultured in RPMI-1640 media supplemented with 10% horse serum and 5% heat-inactivated Fetal Bovine Serum (Hyclone, Logan, UT). HEK293 and SH-SY5Y cells were purchased from ATCC (Gaithersburg, MD) and cultured with DMEM medium with 10% FBS. All cell culture medium were supplemented with 2 mM glutamine, 100 U/ml penicillin, and 100 μg/ml streptomycin.
A single clone of the SH-SY5Y cell line stably expressing a cAMP biosensor (SY5Y_CBS) was generated as previously described for HEK293_CBS and NS-1_CBS cells, using the retroviral vector pLHCX containing the cAMP biosensor and a hygromycin resistance gene. […] Single-cell clones were subsequently isolated by limiting dilution and assessed for PACAP-induced cAMP production using concentration-response assays.
The cyclic AMP biosensor (CBS) assay was performed using Gibco CO2-independent medium (ThermoFisher, catalog #18045-088). […] Luminescence was measured using a GloMax plate reader (Promega, Madison, WI).
GraphPad Prism ver. […] EC80 was calculated as the effective concentration of the agonist required to produce 80% of the maximal response. […]

HEK293_CBS cells = assay: cAMP biosensor (CBS) assay, agonist responses in parental HEK293_CBS; format: cell-based
[4] = biological target: T1, PAC1 (endogenous, mainly PAC1null, SH-SY5Y) (Homo sapiens, UniProt P41586); assay: CBS assay, agonist potency in SY5Y_CBS cells; format: cell-based
T1 construct: Neuroblastoma SH-SY5Y cells endogenously xpressing hPAC1 and engineered to express CBS; endogenous in cells
T1 sequence (P41586 21-468): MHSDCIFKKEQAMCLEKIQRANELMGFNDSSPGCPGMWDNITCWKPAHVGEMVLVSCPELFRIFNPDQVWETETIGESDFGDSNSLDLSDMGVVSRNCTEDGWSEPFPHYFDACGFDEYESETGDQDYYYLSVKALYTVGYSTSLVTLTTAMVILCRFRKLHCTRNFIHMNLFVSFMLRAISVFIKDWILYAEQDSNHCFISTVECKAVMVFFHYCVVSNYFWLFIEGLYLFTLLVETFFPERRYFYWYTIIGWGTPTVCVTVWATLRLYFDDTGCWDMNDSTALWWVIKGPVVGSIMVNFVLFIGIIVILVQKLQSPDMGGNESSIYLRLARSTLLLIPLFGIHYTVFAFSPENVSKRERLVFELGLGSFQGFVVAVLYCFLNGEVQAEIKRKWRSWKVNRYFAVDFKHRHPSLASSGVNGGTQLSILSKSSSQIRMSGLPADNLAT
Source text: A single clone of the SH-SY5Y cell line stably expressing a cAMP biosensor (SY5Y_CBS) was generated as previously described for HEK293_CBS and NS-1_CBS cells [30], using the retroviral vector pLHCX containing the cAMP biosensor and a hygromycin resistance gene. […] Following transduction, cells were selected with the appropriate antibiotics (hygromycin or blasticidin) for 2 weeks. Single-cell clones were subsequently isolated by limiting dilution and assessed for PACAP-induced cAMP production using concentration-response assays.
9.0 or 10.0 (GraphPad Software Inc, Boston, MA) was used for data analysis. Concentration response curves were created using a four parameter logistic regression model. EC80 and IC50 parameters were obtained using non-linear regression curve fitting tools. EC80 was calculated as the effective concentration of the agonist required to produce 80% of the maximal response. IC50 was calculated as the concentration of the antagonist that produced 50% of the response induced by an agonist (either PACAP or forskolin) in the absence of the antagonist. Seven or eight different concentrations and three technical replicates per concentration were used for curve fitting. All data are presented as mean ± standard error of the mean (SEM).

PACAP(6-38) (peptide)
IC50 of inhibition of P27-induced cAMP elevation (CBS assay) in SY5Y CBS cells; pair that is blocked: m2 + m18 [1]: 20 nM
IC50 of inhibition of P38-induced cAMP elevation (CBS assay) in SY5Y CBS cells; pair that is blocked: m1 + m18 [1]: 100 nM

maxadilan
activity at PAC1 (PAC1 [2]): agonist

pituitary adenylate cyclase-activating polypeptide (PACAP) 1-27 (from UniProt P18509 132-158)
EC80 of cAMP elevation (CBS assay) in SY5Y CBS cells [1]: 0.2 nM

pituitary adenylate cyclase-activating polypeptide (PACAP) 1-38 (HSDGIFTDSYSRYRKQMAVKKYLAAVLGKRYKQRVKNK-NH2) [P38, endogenous PAC1 agonist]
agonist response (cAMP) (human PAC1hop (hPAC1)): highly responsive to P38 and P27 with similar potency and efficacy
activation of endogenous PAC1 (PAC1 [3]): can be activated by P38

vasoactive intestinal peptide [VIP]
agonist response (cAMP) (human PAC1hop (hPAC1)): highly specific for activation by PACAP, compared to the related peptide VIP
relative potency of PACAP and VIP (HEK293_CBS cells): the potency of PACAP was similar to VIP
response relative to HEK293_CBS_hPAC1 level (HEK293_CBS cells; IBMX pretreated, luminescence): less than 5%
agonist response / relative agonist potency [4]: VIP is a less potent agonist
potency relative to P27 and P38 (times less potent) [4]: about 100 times
EC80 (approximate) ([4]; Figure 5A): ~ 20 nM
EC80 ([4]; mean ± SEM, n = 3): 20 ± 6.2 nM
Hill Slope ([4]; mean ± SEM, n = 3): 1.78 ± 0.35

B1: vasoactive intestinal peptide (peptide)
peptide: HSDAVFTDNYTRLRKQMAVKKYLNSILN
EC80 of cAMP elevation (CBS assay) in SY5Y CBS cells [1]: 20 nM
